± gives the uncertainty stated by the source.
Assay: protein stability index of a GFP-peptide fusion (yeast GPS) (PSI 1-4); higher = more stable; sorted into four equal gates, so the index is relative within each strain
How it was run: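 Plasmids isolated from each sorting gate were PCR-amplified and Illumina-sequenced, and barcodes assigned the reads to strains. The gates, four of equal size, were set by GFP/Cherry fluorescence ratio on mid-log cultures in leucine-free medium. These cultures were yeast carrying a pooled library of tiled 17-residue yeast protein peptides fused downstream of GFP on a plasmid that also expresses Cherry. The protein stability index is the sum of every gate's read frequency times its gate number.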

Row | Sequence | protein stability index (doa10∆) | protein stability index (pdr5∆) | protein stability index (san1∆) | protein stability index (ubr1∆)
1 | SSSANKLLQLFLTPMDS [YML103C/NUP188] | 1.81 ± 0.052 | 1.61 ± 0.059 | 1.64 ± 0.085 | 1.41 ± 0.042
2 | LNIRIQTYGETTAVDAL [RPC19] | 2.02 ± 0.12 | 1.09 ± 0.11 | 1.19 ± 0.28 | 1.15 ± 0.077
3 | TSLLYLSTLEPSTSITL [RPN9] | 2.36 ± 0.059 | 1.89 ± 0.049 | 1.91 ± 0.089 | 2.13 ± 0.045
4 | LNVPVFQIVIEPLAIAL [ARP7] | 1.65 ± 0.052 | 1.66 ± 0.055 | 1.48 ± 0.078 | 1.25 ± 0.045
5 | QFNAQGVRDINCVNDVL [POP1] | 2.92 ± 0.17 | 2.92 ± 0.17 | 2.91 ± 0.11 | –
6 | WGTLQSVSPQMNAILTD [SMD1] | 2.83 ± 0.11 | 2.66 ± 0.1 | 2.75 ± 0.057 | 2.91 ± 0.074
7 | VSNILSAFKFIHTQLSE [YJL039C/NUP192] | 2.19 ± 0.061 | 1.92 ± 0.048 | 1.47 ± 0.094 | 1.58 ± 0.037
8 | PLINLALIDTEFANFEL [YML103C/NUP188] | 2.71 ± 0.083 | 2.72 ± 0.071 | 2.5 ± 0.089 | 2.95 ± 0.073
9 | HNSVKRYQIMLPEQLKS [SNM1] | 1.16 ± 0.042 | 1.59 ± 0.052 | 1.44 ± 0.1 | 1.74 ± 0.041
10 | GQNLKDLLVNFSAGAAA [RPP1A] | 2.27 ± 0.13 | 2.18 ± 0.2 | 2.02 ± 0.21 | 2.13 ± 0.15
11 | KVPDISSDGQLKKFRES [BRR2] | 3.36 ± 0.13 | 3.49 ± 0.14 | 3.39 ± 0.07 | 3.54 ± 0.065
12 | DQPQSSEAKRTKFSNPA [BRR2] | 3.1 ± 0.093 | 2.65 ± 0.068 | 3.24 ± 0.086 | 3.13 ± 0.084
13 | CFMHLLVQLFLWDSKEL [RPN3] | 1.23 ± 0.078 | 1.6 ± 0.064 | 1.61 ± 0.15 | 1.54 ± 0.15
14 | GFGILEDGMIIDVNLNF [RRP40] | 3.08 ± 0.089 | 3.21 ± 0.075 | 3.19 ± 0.089 | 3.02 ± 0.076
15 | TALALKYLIKYNVFRQH [CSI1] | 1.63 ± 0.06 | 1.8 ± 0.049 | 1.7 ± 0.11 | 1.86 ± 0.053
16 | EATLLTNSNNGSSNNNT [SNF5] | 3 ± 0.087 | 3.32 ± 0.13 | 3.14 ± 0.1 | 3.21 ± 0.065
17 | YGRQELADDLITKMLAS [RPN2] | – | 2.92 ± 0.29 | – | 3 ± 0.079
18 | GLSILFLTGQFASNKKI [YML103C/NUP188] | 2.36 ± 0.068 | 2.37 ± 0.062 | 2.68 ± 0.079 | 2.35 ± 0.052
19 | MGGVSALRGMFKDRFKD [FAS2] | 3.56 ± 0.068 | 3.55 ± 0.067 | 3.41 ± 0.059 | 3.54 ± 0.069
20 | LQILAMLLLNIFISSDH [YMR129W/POM152] | 1.72 ± 0.058 | 1.36 ± 0.061 | 1.35 ± 0.08 | 1.13 ± 0.05
21 | TKTRKHRGHVSAGKGRI [RPL28] | 1.91 ± 0.06 | 2.21 ± 0.062 | 2.09 ± 0.12 | 2.4 ± 0.062
22 | NATLQALYRVNDLRDMI [UBP6] | 2.74 ± 0.096 | 2.95 ± 0.093 | 3.03 ± 0.062 | 3.05 ± 0.075
23 | DLISEILKWVQWSRIVL [MED1] | 3.48 ± 0.12 | 3.33 ± 0.11 | 3.08 ± 0.064 | 3.54 ± 0.061
24 | DNVIVINHKINNKITQL [SIR3] | 2.08 ± 0.057 | 2.13 ± 0.05 | 2.08 ± 0.053 | 2.2 ± 0.04
25 | SLENNIREFPEYFAAQA [RPL10] | 2.3 ± 0.065 | 2.66 ± 0.068 | 2.75 ± 0.05 | 2.52 ± 0.062
26 | VHDIFSKIFNESFPDDI [CDC53] | 2.86 ± 0.069 | 2.91 ± 0.065 | 2.87 ± 0.059 | 2.82 ± 0.06
27 | SNIPTLIEKLQGFSKDT [YDL116W/NUP84] | 3.22 ± 0.1 | 3.23 ± 0.088 | 3.01 ± 0.05 | 3.17 ± 0.073

Row | Sequence | protein stability index (doa10∆) | protein stability index (pdr5∆) | protein stability index (san1∆) | protein stability index (ubr1∆)
28 | PRGLNSARKLRVHRRNN [RPS23A] | 2.39 ± 0.088 | 3.06 ± 0.079 | 2.96 ± 0.096 | 2.8 ± 0.073
29 | LISKPAKKNNFIEDLAP [UBP6] | 2.54 ± 0.084 | 2.73 ± 0.066 | 2.73 ± 0.069 | 2.7 ± 0.062
30 | LRFPEHTSSGSVSFKVF [BRR2] | 1.59 ± 0.055 | 1.51 ± 0.054 | 1.33 ± 0.1 | 1.57 ± 0.06
31 | AARYDYAVAEQCPVKSA [QCR2] | – | – | – | 1.88 ± 0.065
32 | TEENKANTNSVTSMEAA [YIL149C/MLP2] | 3.46 ± 0.1 | 3.5 ± 0.089 | 3.12 ± 0.08 | 3.13 ± 0.058
33 | TPKVVRSQDQENPAFLP [SEC65] | 2.66 ± 0.074 | 2.57 ± 0.067 | 2.16 ± 0.063 | 2.65 ± 0.055
34 | GMYALRERRIHVTQEDF [RPT6] | 1.81 ± 0.074 | 1.94 ± 0.054 | 1.59 ± 0.099 | 2.49 ± 0.1
35 | DATRVFVNGVWHGVHRN [RPB2] | 3.04 ± 0.093 | 3.35 ± 0.071 | 3.28 ± 0.048 | 3.27 ± 0.066
36 | AVKDQQKYTKEMIDSHI [SNF2] | 2.8 ± 0.062 | 2.68 ± 0.051 | 2.38 ± 0.068 | 2.95 ± 0.043
37 | ADEQKRSTDVWYEASTW [ARP7] | 2.36 ± 0.06 | 2.55 ± 0.049 | 2.78 ± 0.052 | 2.73 ± 0.048
38 | ARAAKIAPRPLDLLRPV [RPL13B] | 2.81 ± 0.07 | 3.04 ± 0.064 | 3.07 ± 0.056 | 2.41 ± 0.043
39 | SWASEGISKKTRIAGVV [RPS8A] | 2.54 ± 0.039 | 2.28 ± 0.034 | 2.17 ± 0.045 | 2.03 ± 0.034
40 | DEPMTTFYKCVNCGHRW [RPC11] | 2.84 ± 0.16 | 2.5 ± 0.082 | 2.17 ± 0.15 | 2.82 ± 0.086
41 | KPYYFSNNHKLSESDKK [RPN12] | 1.23 ± 0.063 | 1.47 ± 0.077 | 1.33 ± 0.13 | 1.22 ± 0.042
42 | AVDAKQLAQIRQFLKAN [YML103C/NUP188] | 2.58 ± 0.12 | 3.06 ± 0.079 | 2.96 ± 0.093 | 2.78 ± 0.067
43 | EFLYSKAGREELERVNV [QCR8] | – | – | 3.28 ± 0.11 | 3.27 ± 0.17
44 | SKLSKNISFYKLHVNWN [SIN4] | 2.04 ± 0.076 | 1.79 ± 0.071 | 2.02 ± 0.11 | 2.04 ± 0.06
45 | MPYTINELLEMVGLASG [BRR2] | 2.56 ± 0.049 | 2.31 ± 0.057 | 2.58 ± 0.052 | 2.52 ± 0.031
46 | MNVSTSTFQTRRRRLKK [RPB4] | 3.39 ± 0.2 | 3.43 ± 0.13 | – | 3.38 ± 0.14
47 | TMETKTLPEKKQFDSIF [SIR4] | 2.44 ± 0.047 | 2.69 ± 0.057 | 2.84 ± 0.047 | 2.65 ± 0.043
48 | KGGKGLGKGGAKRHRKI [HHF1] | 3.7 ± 0.22 | 3.59 ± 0.19 | 3.65 ± 0.067 | 3.59 ± 0.053
49 | GLKFASFIFQYYGLVID [PRP8] | 1.73 ± 0.2 | 1.27 ± 0.18 | 1.14 ± 0.27 | –
50 | TIPLGGSVHKLPYAIAG [PRE3] | 2.97 ± 0.066 | 2.91 ± 0.085 | 2.84 ± 0.089 | 3.08 ± 0.045
51 | RELILAKKQNYKLTNDE [YCG1] | 3.37 ± 0.067 | 3.35 ± 0.053 | 3.23 ± 0.05 | 3.29 ± 0.041
52 | DRIIHTWRTQLAASEIG [ECM29] | 1.65 ± 0.056 | 1.84 ± 0.06 | 1.65 ± 0.062 | 1.83 ± 0.035
53 | QIYGFEGLNQRNQVQTE [YGR119C/NUP57] | 3.16 ± 0.17 | 2.94 ± 0.22 | 3.08 ± 0.13 | 3.39 ± 0.18
